The text below walks through data of patent US20230250156A1.

“And” between values parts separate entries of the source, which are not always exact repeats. Identical values can stand only once.

The target of this test is SARS-CoV-2 RBD protein (SARS-CoV-2) (UniProt P0DTC2).

For “ACE2 Ig-TD Quad (ACE2(18-615) Ig-TD) (Fc fusion)”, the IC50 was 450 pM and 449 pM.

Usually IC50 stands for the concentration that inhibits the measured activity by half.
